US20220242939A1 (BIOARCTIC, published 2022)
Non-standard residues stand in square brackets, D forms with d. No end group written: not given here. Ahx = NCCCCCC(=O)O

What was measured:
[1] = biological target: T1, L198 N-terminal neo-epitope peptide LAGQPL-Acp-C (SEQ ID NO:52) conjugated to BSA (human, not fully specified (residue 8); printed as LAGQPL-Acp-C; also: C-terminal Cys conjugated to BSA carrier); assay: direct ELISA, L198-BSA peptide coated at 1 µg/ml
T1 construct: BSA carrier; also called L198-BSA peptide
T1 peptide: LAGQPL[Ahx]C
Experimental: (§1) Selectivity evaluation of purified monoclonal antibodies by direct ELISA: The direct ELISA described below was used to evaluate the binding selectivity of the purified monoclonal antibodies produced in Example 14.
(§2) The screening was performed according to standard ELISA protocols. Briefly, 1 μg/ml solutions of BSA-conjugated neo-epitope peptides and negative control peptide, and 0.1 μM recombinant C-terminal ApoE fragment and full-length ApoE (Abcam, cat. no. ab50243) were prepared by dilution in PBS. 50 μl/well were added to an ELISA half-area 96 well microtiter plate, and the plate was sealed with adhesive sealer and incubated over night at 4° C. After discarding the solution, the plates were blocked with 150 μl/well of protein-free blocking solution (Pierce) for 1 h at room temperature with shake (600-900 rpm). The plates were washed four times with washing buffer containing 0.28 mM NaH₂PO₄, 2.5 mM Na₂HPO₄, 150 mM NaCl, 0.1% TWEEN®-20 and 0.0075% Kathon CG. Purified monoclonal antibodies of interest were 3-fold serially diluted with a starting dilution at 3 μg/ml (mixed 1:2 with dilution buffer (PBS with 0.1% BSA and 0.05% TWEEN®-20)). An anti-ApoE C-terminal antibody was used as a reference antibody (ApoE E-8 mouse monoclonal, Santa Cruz Biotechnology, cat. no. sc-393302). 50 μl/well were added into the ELISA plates and incubated for 2 h at room temperature with shake (600-900 rpm). The plates were washed four times as described previously. […] After another wash (as described previously), 50 μl/well of K-Blue® aqueous substrate (Neogen) were added, and the reaction was stopped after 5-15 min with 50 μl/well of 0.5 M […]. The optical density at 450 nm was read using an ELISA reader (Tecan).

[2] = biological target: T2, L198 N-terminal neo-epitope peptide LAGQPLQE-Acp-C (SEQ ID NO:54) conjugated to BSA (human, not fully specified (residue 10); printed as LAGQPLQE-Acp-C; also: C-terminal Cys conjugated to BSA carrier); assay: direct ELISA after limiting dilution
T2 construct: BSA carrier
T2 peptide: LAGQPLQE[Ahx]C

[3] = biological target: T3, recombinant C-terminal ApoE fragment L198-HIS (ApoE-L198-H299-10xHIS) (human, UniProt P02649 216-317); assay: SPR (Biacore 8K), L198-HIS amine-coupled on CM5, antibody as analyte, bivalent analyte fit (KD1)
T3 construct: also called L198-HIS fragment
Experimental: (§3) Selectivity evaluation and KD determination of purified monoclonal antibodies by surface plasmon resonance: Binding interactions between the antigens and antibodies were evaluated by surface plasmon resonance (SPR) using a Biacore 8K instrument (GE Healthcare) according to standard procedures.
(§4) Selectivity evaluation and KD determination of purified monoclonal antibodies by surface plasmon resonance: The five purified monoclonal antibodies 6F4, 8B3, 12B1, 15F8 and 15H11 were evaluated for selectivity, and KD values for the target antigen were determined by surface plasmon resonance.

[4] = biological target: T4, full-length ApoE in human brain extract from Alzheimer's disease patients (human, UniProt P02649 19-317); assay: Western blot of AD brain RIPA 2% SDS extract; monoclonal antibody at 2 ug/ml as primary antibody
T4 construct: mature; Endogenous protein on Western blot or in solution (IP); also called ApoE full-length protein

[5] = biological target: T3, recombinant C-terminal ApoE fragment …; assay: SPR (Biacore 8K), L198-HIS amine-coupled on CM5, antibody as analyte, bivalent analyte fit (ka1)
[6] = biological target: T3, recombinant C-terminal ApoE fragment …; assay: direct ELISA, L198-HIS coated at 0.1 µM
Experimental: as §1, §2

[7] = biological target: T3, recombinant C-terminal ApoE fragment …; assay: SPR (Biacore 8K), L198-HIS amine-coupled on CM5, antibody as analyte, bivalent analyte fit (kd1)
Experimental: as §3, §4

T3 sequence (P02649 other isoform, or with tags, fused parts or gaps limits assumed): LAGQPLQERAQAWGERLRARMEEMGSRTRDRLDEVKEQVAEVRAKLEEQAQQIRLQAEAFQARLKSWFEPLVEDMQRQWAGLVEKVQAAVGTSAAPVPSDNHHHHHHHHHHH
T4 sequence (P02649 19-317): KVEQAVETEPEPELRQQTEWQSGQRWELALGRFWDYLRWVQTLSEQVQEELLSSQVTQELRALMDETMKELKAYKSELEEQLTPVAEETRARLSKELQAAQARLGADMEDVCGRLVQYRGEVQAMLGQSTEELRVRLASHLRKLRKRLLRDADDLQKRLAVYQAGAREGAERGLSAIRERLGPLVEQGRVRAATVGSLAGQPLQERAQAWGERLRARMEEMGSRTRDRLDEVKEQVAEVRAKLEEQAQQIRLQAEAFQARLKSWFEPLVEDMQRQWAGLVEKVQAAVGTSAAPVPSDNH

EC50 [1]: 8.4 ng/mL
binding result [2]: binds
Kd [3]: 12 nM
binding result [4]: no binding (tested: 2 ug/ml (text))
kon [5]: 42000 M⁻¹ s⁻¹
EC50 [6]: 1.3 ng/mL
koff [7]: 0.000302 s⁻¹
B1: 8B3, monoclonal anti-L198 antibody (antibody, IgG2b, V domains shown)
VH: EVKVEESGGGVVQPGGSMKLSCLASGFTFRNYWMNWVRQSPEKGLEWVAQIRLKSDNYATRYAESVKGRFTISRDDSKSSVYLQMNNLRAEDTGTYYCSGHILLRYYALDFWGQGTSVTVSS
VL: DIVLTQSQKFMSTSVGDRVSVTCKASQNVYTDVAWYQQKPGQSPKGMIYSASYRYSGVPDRFTGSGSGTDFTLKISNVQSEDLAEYFCQQYNSFPYTFGGGTKLEIK
